What was measured:
Test in all cases: holdup assay
Design in all cases: key: below the threshold = too weak to quantify, mostly under pKd 3.1 to 4
Conditions in all cases: plain residues with an end cap or a label only (N-terminal biotin on a linker: ado-ado)
[1] = molecular target: AHNAK1, Q09666
[2] = molecular target: T1, ARHGAP21, Q5T5U3
T1 sequence (Q5T5U3 45-169, limits assumed, looked up): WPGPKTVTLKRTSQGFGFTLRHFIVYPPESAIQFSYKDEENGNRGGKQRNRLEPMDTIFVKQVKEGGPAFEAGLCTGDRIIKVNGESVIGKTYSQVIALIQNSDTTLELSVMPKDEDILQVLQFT

[3] = molecular target: T2, DLG3_1, Q92796
T2 sequence (Q92796 125-227, limits assumed, looked up): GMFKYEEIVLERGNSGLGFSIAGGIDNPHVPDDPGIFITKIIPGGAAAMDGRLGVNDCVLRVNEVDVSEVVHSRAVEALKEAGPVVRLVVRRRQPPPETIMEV

[4] = molecular target: DLG5_1, Q8TDM6
[5] = molecular target: FRMPD2_1, Q68DX3
[6] = molecular target: FRMPD2_2, Q68DX3
[7] = molecular target: GRASP, Q7Z6J2
[8] = molecular target: GRID2IP_2, A4D2P6
[9] = molecular target: T3, GRIP1_4, Q9Y3R0
T3 sequence (Q9Y3R0 467-571, limits assumed, looked up): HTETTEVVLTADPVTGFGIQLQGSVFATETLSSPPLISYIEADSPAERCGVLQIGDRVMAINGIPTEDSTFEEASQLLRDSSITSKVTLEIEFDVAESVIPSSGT

[10] = molecular target: Inadl_6, Q8NI35
[11] = molecular target: LAP2, Q96RT1
[12] = molecular target: T4, LIN7B, Q9HAP6
T4 sequence (Q9HAP6 88-185, limits assumed, looked up): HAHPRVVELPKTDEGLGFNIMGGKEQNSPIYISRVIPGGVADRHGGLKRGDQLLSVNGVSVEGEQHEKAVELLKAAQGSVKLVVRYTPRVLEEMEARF

[13] = molecular target: T5, LIN7C, Q9NUP9
T5 sequence (Q9NUP9 88-185, limits assumed, looked up): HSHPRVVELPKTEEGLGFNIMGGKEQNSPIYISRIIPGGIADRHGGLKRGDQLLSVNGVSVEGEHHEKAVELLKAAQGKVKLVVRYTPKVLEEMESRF

[14] = molecular target: LNX1_2, Q8TBB1
[15] = molecular target: MAGI1_2, Q96QZ7
[16] = molecular target: T6, MPDZ_10, O75970
T6 sequence (O75970 1624-1722, limits assumed, looked up): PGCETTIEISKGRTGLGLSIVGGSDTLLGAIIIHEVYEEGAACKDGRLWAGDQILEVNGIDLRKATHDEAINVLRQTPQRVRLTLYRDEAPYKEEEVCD

[17] = molecular target: T7, MPDZ_5, O75970
T7 sequence (O75970 695-796, limits assumed, looked up): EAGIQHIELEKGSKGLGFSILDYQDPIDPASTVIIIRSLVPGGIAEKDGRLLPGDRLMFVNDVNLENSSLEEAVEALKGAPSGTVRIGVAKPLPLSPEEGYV

[18] = molecular target: T8, MPP6, Q9NZW5
T8 sequence (Q9NZW5 125-219, limits assumed, looked up): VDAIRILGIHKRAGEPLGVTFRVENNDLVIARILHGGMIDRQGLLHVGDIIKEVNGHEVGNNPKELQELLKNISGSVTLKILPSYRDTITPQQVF

[19] = molecular target: T9, PDZD2_2, O15018
T9 sequence (O15018 329-429, limits assumed, looked up): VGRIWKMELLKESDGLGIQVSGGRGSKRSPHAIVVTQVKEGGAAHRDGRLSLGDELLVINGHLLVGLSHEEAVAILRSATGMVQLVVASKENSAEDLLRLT

[20] = molecular target: PICK1, Q9NRD5
[21] = molecular target: SCRIB_3, Q14160
[22] = molecular target: T10, SNTB1, Q13884
T10 sequence (Q13884 107-205, limits assumed, looked up): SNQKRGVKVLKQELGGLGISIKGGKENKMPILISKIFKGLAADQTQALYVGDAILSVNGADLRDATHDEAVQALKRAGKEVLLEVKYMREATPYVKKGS

[23] = molecular target: SNX27, Q96L92
[24] = molecular target: T11, TIAM2, Q8IVF5
T11 sequence (Q8IVF5 885-986, limits assumed, looked up): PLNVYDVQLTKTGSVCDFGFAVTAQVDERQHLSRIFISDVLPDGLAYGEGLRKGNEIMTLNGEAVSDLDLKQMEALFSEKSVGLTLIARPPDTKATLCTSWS

[25] = molecular target: T12, TX1BP3, O14907
T12 sequence (O14907 10-122, limits assumed, looked up): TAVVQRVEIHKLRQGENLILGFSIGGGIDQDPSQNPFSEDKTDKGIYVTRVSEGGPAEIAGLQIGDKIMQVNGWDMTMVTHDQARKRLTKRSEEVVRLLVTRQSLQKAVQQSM

DLG5_1, Q8TDM6, sequence (Q8TDM6 617-713): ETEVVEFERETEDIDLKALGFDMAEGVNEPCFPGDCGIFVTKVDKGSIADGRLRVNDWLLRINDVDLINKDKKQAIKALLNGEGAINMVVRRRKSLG
Inadl_6, Q8NI35, sequence (Q8NI35 1058-1167): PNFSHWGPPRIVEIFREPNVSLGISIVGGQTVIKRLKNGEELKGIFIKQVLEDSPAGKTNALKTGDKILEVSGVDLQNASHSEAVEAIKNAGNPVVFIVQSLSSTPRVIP
SCRIB_3, Q14160, sequence (Q14160 999-1103): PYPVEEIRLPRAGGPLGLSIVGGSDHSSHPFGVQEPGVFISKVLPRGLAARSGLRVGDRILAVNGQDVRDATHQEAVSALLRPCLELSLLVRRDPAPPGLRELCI
LAP2, Q96RT1, sequence (Q96RT1 other isoform, or with tags, fused parts or gaps): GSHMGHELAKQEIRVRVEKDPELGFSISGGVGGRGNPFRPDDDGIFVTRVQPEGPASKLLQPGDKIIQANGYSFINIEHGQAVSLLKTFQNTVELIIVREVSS
FRMPD2_1, Q68DX3, sequence (Q68DX3 770-861): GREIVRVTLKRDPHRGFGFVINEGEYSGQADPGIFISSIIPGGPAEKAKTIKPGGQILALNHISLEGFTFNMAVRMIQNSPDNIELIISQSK
GRASP, Q7Z6J2, sequence (Q7Z6J2 96-193): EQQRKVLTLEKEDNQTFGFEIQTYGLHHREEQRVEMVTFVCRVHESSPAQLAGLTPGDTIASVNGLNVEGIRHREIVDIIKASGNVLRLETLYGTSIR
MAGI1_2, Q96QZ7, sequence (Q96QZ7 456-580): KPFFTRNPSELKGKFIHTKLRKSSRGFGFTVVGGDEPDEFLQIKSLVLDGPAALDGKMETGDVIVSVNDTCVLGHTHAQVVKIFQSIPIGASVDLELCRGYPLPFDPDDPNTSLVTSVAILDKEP
FRMPD2_2, Q68DX3, sequence (Q68DX3 944-1038): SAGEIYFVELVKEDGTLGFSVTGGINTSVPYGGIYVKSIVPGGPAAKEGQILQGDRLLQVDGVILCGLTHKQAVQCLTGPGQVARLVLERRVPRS
GRID2IP_2, A4D2P6, sequence (A4D2P6 272-370): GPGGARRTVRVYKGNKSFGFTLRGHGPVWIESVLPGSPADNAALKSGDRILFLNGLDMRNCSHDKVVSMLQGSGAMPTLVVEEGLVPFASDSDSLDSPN
PICK1, Q9NRD5, sequence (Q9NRD5 17-115): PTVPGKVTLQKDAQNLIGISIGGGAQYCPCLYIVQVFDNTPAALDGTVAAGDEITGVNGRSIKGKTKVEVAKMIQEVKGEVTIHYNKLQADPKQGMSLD
AHNAK1, Q09666, sequence (Q09666 4-100): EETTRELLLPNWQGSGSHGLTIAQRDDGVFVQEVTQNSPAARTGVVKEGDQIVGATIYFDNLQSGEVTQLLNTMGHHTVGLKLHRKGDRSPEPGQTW
LNX1_2, Q8TBB1, sequence (Q8TBB1 371-470): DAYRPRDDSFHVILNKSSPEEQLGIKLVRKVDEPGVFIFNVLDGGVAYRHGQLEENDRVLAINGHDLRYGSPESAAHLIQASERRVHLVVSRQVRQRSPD

KKMPSIESDV [GRIN2A, Q12879]
pKd [1]: below the threshold
pKd [2]: below the threshold
pKd [3]: 4.35
pKd [4]: below the threshold
pKd [5]: below the threshold
pKd [6]: 3.78
pKd [7]: below the threshold
pKd [8]: 3.59
pKd [9]: below the threshold
pKd [10]: below the threshold
pKd [11]: 4.6
pKd [12]: 3.71
pKd [13]: below the threshold
pKd [14]: below the threshold
pKd [15]: below the threshold
pKd [16]: below the threshold
pKd [17]: below the threshold
pKd [18]: below the threshold
pKd [19]: 4.91
pKd [20]: below the threshold
pKd [21]: 4.85
pKd [22]: 4.69
pKd [23]: 3.64
pKd [24]: 3.96
pKd [25]: 5.13

HSGYRLNDYV [CLDN14, O95500]
pKd [1]: below the threshold
pKd [2]: 3.95
pKd [3]: below the threshold
pKd [4]: below the threshold
pKd [5]: below the threshold
pKd [6]: below the threshold
pKd [7]: 3.74
pKd [8]: 3.63
pKd [9]: below the threshold
pKd [10]: below the threshold
pKd [11]: below the threshold
pKd [12]: below the threshold
pKd [13]: below the threshold
pKd [14]: 3.61
pKd [15]: below the threshold
pKd [16]: below the threshold
pKd [17]: below the threshold
pKd [18]: 3.9
pKd [19]: 4.79
pKd [20]: 4.13
pKd [21]: below the threshold
pKd [22]: 3.54
pKd [23]: 3.72
pKd [24]: below the threshold
pKd [25]: 4.24

DDENIRTSDV [PLEKHA2, Q9HB19]
pKd [1]: below the threshold
pKd [2]: 4.37
pKd [3]: below the threshold
pKd [4]: below the threshold
pKd [5]: below the threshold
pKd [6]: 3.82
pKd [7]: 3.82
pKd [8]: 4.19
pKd [9]: below the threshold
pKd [10]: below the threshold
pKd [11]: 4.18
pKd [12]: below the threshold
pKd [13]: below the threshold
pKd [14]: below the threshold
pKd [15]: below the threshold
pKd [16]: 3.85
pKd [17]: below the threshold
pKd [18]: below the threshold
pKd [19]: 5.74
pKd [20]: below the threshold
pKd [21]: 3.99
pKd [22]: 5.37
pKd [23]: 4.84
pKd [24]: below the threshold
pKd [25]: 4.75

TSQESEDTYL [TBC1D10A, Q9BXI6]
pKd [1]: below the threshold
pKd [2]: 4.45
pKd [3]: below the threshold
pKd [4]: below the threshold
pKd [5]: below the threshold
pKd [6]: below the threshold
pKd [7]: below the threshold
pKd [8]: below the threshold
pKd [9]: below the threshold
pKd [10]: 3.78
pKd [11]: 3.54
pKd [12]: below the threshold
pKd [13]: below the threshold
pKd [14]: below the threshold
pKd [15]: below the threshold
pKd [16]: below the threshold
pKd [17]: below the threshold
pKd [18]: below the threshold
pKd [19]: 4.49
pKd [20]: 4.11
pKd [21]: 4.16
pKd [22]: 3.79
pKd [23]: 5.27
pKd [24]: below the threshold
pKd [25]: below the threshold

— paper PMC9482650, “Quantitative fragmentomics allow affinity mapping of interactomes” (Nature Communications, 2022)
